Target: tKeima (tetrameric large Stokes shift red fluorescent protein Keima) (Montipora sp.)
Assay: SEC; gel filtration on Sephacryl S-100, 10 mM Tris-HCl (pH 8.0), 200 mM NaCl

## tKeima (tetrameric large Stokes shift red fluorescent protein Keima)
  stoichiometry N: 4
